From PMC9569509, “Collagen Type XI Inhibits Lung Cancer-Associated Fibroblast Functions and Restrains the Integrin Binding Site Availability on Collagen Type I Matrix” (International Journal of Molecular Sciences, 2022)

Biological target: bovine collagen type XI (bovine, UniProt Q28083 279-911; Q32S24 28-1736; P02459 182-1487, Triple helix of alpha1(XI), alpha2(XI) and alpha3(XI), the last being the COL2A1 product; hydroxyproline and glycosylated hydroxylysine. Purchased tissue collagen (Chondrex); limits not given, and t)
Test: ELISA; solid phase assay: collagens (50 µg/mL) or fibronectin (10 µg/mL) immobilised on a 96-well plate; DDR2-Fc in 0.05 mg/mL κ-casein in PBS-T, 3 h at room temperature; detected by goat anti-human IgG (Fc specific)-HRP; Kd by Scatchard plot
Conditions: both partners purified

bovine collagen type XI, sequence (Q28083 279-911, chain 1 of 3): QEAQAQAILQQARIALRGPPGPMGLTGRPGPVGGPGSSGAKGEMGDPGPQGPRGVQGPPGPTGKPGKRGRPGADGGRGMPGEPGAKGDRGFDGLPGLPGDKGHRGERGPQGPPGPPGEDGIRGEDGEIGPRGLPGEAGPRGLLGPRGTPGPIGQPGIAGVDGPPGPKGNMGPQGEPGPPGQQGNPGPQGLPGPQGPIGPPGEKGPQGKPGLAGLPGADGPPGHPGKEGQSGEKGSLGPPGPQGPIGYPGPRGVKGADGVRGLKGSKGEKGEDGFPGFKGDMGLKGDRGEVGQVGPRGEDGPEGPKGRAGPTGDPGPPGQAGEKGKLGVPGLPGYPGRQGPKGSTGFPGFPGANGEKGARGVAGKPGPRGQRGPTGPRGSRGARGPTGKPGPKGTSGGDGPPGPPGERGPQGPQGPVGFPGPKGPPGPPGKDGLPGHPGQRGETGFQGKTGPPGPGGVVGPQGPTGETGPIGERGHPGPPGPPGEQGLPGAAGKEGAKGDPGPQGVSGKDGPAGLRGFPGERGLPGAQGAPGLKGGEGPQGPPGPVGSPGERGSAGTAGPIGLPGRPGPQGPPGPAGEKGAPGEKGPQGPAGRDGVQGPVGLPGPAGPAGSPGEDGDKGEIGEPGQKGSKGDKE
bovine collagen type XI, sequence (Q32S24 28-1736, chain 2 of 3): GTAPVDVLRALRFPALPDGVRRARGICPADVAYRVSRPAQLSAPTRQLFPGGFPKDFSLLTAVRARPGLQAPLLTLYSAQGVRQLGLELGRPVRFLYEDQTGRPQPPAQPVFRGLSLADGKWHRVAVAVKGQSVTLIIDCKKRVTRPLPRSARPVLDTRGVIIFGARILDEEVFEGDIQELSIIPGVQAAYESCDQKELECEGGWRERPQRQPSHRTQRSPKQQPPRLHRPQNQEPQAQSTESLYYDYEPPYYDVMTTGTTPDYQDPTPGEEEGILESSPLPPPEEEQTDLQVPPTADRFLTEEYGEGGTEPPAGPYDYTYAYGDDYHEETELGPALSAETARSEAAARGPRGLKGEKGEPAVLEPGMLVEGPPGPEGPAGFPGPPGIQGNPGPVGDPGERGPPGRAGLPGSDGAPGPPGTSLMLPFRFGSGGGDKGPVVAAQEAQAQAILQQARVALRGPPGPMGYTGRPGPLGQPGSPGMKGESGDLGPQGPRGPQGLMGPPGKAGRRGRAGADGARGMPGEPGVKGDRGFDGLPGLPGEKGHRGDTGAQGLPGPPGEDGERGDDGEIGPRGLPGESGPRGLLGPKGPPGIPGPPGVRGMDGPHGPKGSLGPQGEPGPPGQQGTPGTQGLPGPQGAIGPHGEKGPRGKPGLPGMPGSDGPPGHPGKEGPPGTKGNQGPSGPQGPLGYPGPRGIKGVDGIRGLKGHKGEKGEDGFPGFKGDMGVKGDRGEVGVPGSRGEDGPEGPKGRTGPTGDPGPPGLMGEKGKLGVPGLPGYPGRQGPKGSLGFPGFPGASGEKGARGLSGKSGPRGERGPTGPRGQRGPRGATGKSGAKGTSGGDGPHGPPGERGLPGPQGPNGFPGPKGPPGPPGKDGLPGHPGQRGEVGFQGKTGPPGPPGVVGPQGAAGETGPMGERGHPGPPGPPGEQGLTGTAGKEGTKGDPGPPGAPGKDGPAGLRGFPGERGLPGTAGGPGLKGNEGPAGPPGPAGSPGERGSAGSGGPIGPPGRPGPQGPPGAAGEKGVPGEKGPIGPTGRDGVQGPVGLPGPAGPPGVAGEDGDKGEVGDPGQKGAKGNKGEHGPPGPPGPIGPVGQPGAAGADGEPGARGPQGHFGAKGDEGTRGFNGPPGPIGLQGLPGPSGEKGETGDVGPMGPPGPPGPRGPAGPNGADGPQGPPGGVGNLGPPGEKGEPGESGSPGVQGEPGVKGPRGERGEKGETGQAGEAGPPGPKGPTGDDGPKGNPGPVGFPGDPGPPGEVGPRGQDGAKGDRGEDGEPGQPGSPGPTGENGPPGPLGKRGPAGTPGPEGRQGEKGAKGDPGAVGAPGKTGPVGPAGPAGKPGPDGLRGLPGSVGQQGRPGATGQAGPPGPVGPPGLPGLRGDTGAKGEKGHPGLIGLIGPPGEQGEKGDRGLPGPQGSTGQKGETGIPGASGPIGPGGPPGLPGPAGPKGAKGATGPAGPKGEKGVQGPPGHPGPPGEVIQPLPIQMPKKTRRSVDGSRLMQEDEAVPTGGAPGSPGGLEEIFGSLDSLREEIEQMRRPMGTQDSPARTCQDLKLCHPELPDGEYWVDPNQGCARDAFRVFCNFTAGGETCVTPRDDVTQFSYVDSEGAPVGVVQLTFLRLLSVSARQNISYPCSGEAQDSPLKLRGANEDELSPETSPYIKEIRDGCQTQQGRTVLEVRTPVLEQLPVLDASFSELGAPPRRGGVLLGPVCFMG
bovine collagen type XI, sequence (P02459 182-1487, chain 3 of 3): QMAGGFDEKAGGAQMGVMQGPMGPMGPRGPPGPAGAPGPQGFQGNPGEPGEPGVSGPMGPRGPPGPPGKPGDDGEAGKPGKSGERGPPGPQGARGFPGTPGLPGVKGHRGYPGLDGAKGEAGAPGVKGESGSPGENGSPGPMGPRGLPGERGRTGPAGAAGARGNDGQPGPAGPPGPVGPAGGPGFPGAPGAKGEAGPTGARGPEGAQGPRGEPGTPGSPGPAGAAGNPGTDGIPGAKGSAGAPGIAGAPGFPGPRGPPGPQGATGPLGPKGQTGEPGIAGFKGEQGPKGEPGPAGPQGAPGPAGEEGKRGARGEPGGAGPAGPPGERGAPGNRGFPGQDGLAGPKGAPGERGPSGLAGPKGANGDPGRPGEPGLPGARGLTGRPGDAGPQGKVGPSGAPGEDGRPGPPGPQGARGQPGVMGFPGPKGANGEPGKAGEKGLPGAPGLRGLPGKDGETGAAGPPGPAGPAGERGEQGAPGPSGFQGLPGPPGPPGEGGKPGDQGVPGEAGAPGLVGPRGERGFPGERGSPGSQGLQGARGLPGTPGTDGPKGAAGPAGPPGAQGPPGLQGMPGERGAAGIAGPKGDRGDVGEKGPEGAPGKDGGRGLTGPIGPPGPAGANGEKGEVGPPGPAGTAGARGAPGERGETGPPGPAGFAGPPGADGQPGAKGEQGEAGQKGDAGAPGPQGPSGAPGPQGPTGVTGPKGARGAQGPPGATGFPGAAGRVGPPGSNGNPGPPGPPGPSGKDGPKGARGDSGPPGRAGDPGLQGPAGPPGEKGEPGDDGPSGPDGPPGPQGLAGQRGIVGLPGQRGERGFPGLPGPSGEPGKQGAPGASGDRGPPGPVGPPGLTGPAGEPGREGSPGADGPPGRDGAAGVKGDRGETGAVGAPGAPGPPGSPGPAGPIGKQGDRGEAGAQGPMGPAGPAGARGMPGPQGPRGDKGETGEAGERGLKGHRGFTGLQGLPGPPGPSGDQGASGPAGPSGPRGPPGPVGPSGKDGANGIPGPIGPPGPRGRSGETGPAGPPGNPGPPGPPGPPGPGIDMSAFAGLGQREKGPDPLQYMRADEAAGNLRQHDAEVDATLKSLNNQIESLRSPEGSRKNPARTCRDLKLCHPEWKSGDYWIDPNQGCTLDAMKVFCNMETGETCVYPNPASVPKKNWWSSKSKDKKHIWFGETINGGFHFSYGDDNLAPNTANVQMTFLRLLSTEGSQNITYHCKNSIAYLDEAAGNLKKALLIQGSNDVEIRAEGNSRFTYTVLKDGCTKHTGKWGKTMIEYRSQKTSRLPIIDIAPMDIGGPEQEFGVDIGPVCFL

B1: Recombinant human DDR2-Fc chimera protein (Fc fusion, UniProt Q16832 22-399, looked up)
chain: KAQVNPAICRYPLGMSGGQIPDEDITASSQWSESTAAKYGRLDSEEGDGAWCPEIPVEPDDLKEFLQIDLHTLHFITLVGTQGRHAGGHGIEFAPMYKINYSRDGTRWISWRNRHGKQVLDGNSNPYDIFLKDLEPPIVARFVRFIPVTDHSMNVCMRVELYGCVWLDGLVSYNAPAGQQFVLPGGSIIYLNDSVYDGAVGYSMTEGLGQLTDGVSGLDDFTQTHEYHVWPGYDYVGWRNESATNGYIEIMFEFDRIRNFTTMKVHCNNMFAKGVKIFKEVQCYFRSEASEWEPNAISFPLVLDDVNPSARFVTVPLHHRMASAIKCQYHFADTWMMFSEITFQSDAAMYNNSEALPTSPMAPTTYDPMLKVDDSNTR
notes: discoidin domain receptor 2, human; No catalogue number printed; Probably the extracellular domain of DDR2 joined to a human IgG Fc; Detected by goat anti-human IgG (Fc specific)-HRP; source: bought: Sino Biological
Which Kd does the source give for B1 here?
The Kd was 2 to 5 nM.
